Where no end group is shown, it is not given here.
Biological target: T1, PCSK9-WT protein (Homo sapiens, UniProt Q8NBP7)
T1 construct: V5
Assay: FACS analysis of cell surface LDLR in HuH7 cells with PCSK9-WT
Format: cell-based
Description: HuH7 cells were incubated for 18 h in the absence (Cnt) or presence of 0.75 μg/ml PCSK9-WT protein alone (WT) or mixed with 100 μM of various SRX peptides. The level of LDLR at the cell surface was measured by FACS using anti human LDLR Ab and a suitable secondary Ab labeled with Alexa 647. Cell surface LDLR is reported relative to Cnt. % inhibition of activity was calculated as [SRX−WT]/[Cnt−WT]×100%.
See, FIG. 1. In that experiment, the LDLR levels of a hepatocyte culture model (HuH7 cells) were measured by fluorescence activated cell sorting (FACS) in accordance with Example III. Cell surface LDLR is reported as a percentage of Basal levels of LDLR, indicated by the Cnt_Amm.Bic, Cnt_Ac.Acid, and Cnt bars in the top graph. See, FIG. 1 (top panel). LDLR levels in the presence of exogenous PCSK9 is indicated as WT_Amm.Bic, WT-Ac.Acid, and WT, and Exogenous PCSK9 in combination with a tested peptide is indicated as SRX##. The measured LDLR levels are reported as % versus basal controls (Cnt) of the respective group. […] This was further shown a percent inhibition (% inhibition was calculated as [SRX−WT]/[Cnt−WT]×100%) where positive modulation (increase) of LDLR level is reported as positive % inhibition, and negative modulation (decrease) of LDLR level is reported as negative % inhibition. See, FIG. 1 (bottom panel).
Benjannet et al., “Effects of the prosegment and pH on the activity of PCSK9: evidence for additional processing events” J Biol Chem. 285(52): 40965-40978 (2010). The cells were then washed 3× with solution A (calcium/magnesium-free Dulbecco's PBS (Invitrogen) containing 0.5% bovine serum albumin (Sigma) and 1 g/liter glucose)). The cells were then incubated for 10 min at room temperature with 1× Versene solution (Invitrogen) followed by the addition of 5 ml of solution A. The cells were then incubated for 40 min in solution A containing a human LDLR mAb-C7 (1:100; Santa Cruz Biotechnology). Following washes, the cells were then incubated for 20 min in solution A containing a secondary antibody (Alexa Fluor 647 donkey anti-mouse antibody; 1:250; Molecular Probes).
Following suspension in PBS containing 0.2% of propidium iodide, the cells were analyzed by FACS for both propidium iodide (dead cells) and LDLR in live cells with Alexa Fluor 647 using the FACS BD LSR (BD Biosciences).

T1 sequence (Q8NBP7 153-692): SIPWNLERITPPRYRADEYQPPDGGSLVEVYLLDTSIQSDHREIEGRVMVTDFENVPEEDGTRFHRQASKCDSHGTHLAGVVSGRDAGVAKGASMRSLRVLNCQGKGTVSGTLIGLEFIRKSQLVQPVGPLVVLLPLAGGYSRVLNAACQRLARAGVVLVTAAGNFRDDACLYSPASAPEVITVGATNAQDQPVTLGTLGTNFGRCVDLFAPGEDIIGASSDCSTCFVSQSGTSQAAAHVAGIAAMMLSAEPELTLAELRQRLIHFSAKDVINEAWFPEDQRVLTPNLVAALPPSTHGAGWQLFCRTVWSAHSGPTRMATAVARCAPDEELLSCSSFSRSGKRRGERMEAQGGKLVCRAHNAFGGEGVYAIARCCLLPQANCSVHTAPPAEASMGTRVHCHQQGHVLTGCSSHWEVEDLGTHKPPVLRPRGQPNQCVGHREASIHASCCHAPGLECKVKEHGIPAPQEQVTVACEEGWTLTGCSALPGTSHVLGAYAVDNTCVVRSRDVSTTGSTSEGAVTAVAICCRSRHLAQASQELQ

Val-Tyr-Val-Arg-Phe-Trp (VYVRFW; not fully specified (C-terminus); printed as Val-Tyr-Val-Arg-Phe-Trp) [Compound 1]
modulation of LDLR cell surface level (HuH7 cells, FACS, exogenous WT PCSK9 plus peptide (FIG. 1, 100 μM)): positively modulate (increase)
increase of cell surface expression of LDL-R (WT PCSK9, FACS in HuH7 cells): 100%
